Laboratory results: patent US20160213771A1

Molecular target: CXC chemokine receptor 2 (CXCR2) (UniProt P25025)
Experiment: cell-based or functional assay

UniProt P25025, sequence (P25025 whole entry): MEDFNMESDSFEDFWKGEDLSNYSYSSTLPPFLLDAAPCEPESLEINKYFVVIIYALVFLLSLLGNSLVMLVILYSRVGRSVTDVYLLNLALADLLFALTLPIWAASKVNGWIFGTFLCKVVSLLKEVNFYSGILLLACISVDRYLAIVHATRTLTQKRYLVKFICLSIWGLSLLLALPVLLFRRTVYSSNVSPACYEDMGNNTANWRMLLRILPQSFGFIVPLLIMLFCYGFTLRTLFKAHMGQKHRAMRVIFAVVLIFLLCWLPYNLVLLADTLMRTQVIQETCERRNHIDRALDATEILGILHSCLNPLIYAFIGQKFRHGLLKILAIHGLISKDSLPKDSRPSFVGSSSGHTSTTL

Substance	chemotactic response in Transwell migration assays
IL-8 (from UniProt P10145 28-99) (ligand)	> 500%
UL146 (ligand)	> 500%
